The results in this text go back to patent US20230174641A1 (H LUNDBECK A S, published 2023).

T1: human ACTH 1-39 (human)
T1 peptide: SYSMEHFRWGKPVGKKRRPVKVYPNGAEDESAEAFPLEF

T2: human ACTH 18-39 (human)
T2 construct: also called CLIP; CLIP (ACTH 18-39)
T2 peptide: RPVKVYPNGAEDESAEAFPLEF

T3: N-term biotinylated human ACTH 1-39 (human, N-terminal biotin)
T3 construct: also called huACTH 1-39
T3 peptide: T1 peptide

T4: human ACTH 1-13 (human, ends and bridges not checked)
T4 construct: also called human alpha-MSH (ACTH 1-13); alpha-MSH
T4 peptide: SYSMEHFRWGKPV

B1: Ab1 (antibody, human IgG1, kappa, N297A, V domains shown)
VH: QSVKESGGRLVTPGTPLTLTCTVSGFSLSNYDMIWVRQAPGKGLESIGMIYDDGDTYYASWAKGRFTISKTSTTVDLKIISPTTEDTATYFCVKGVSNHWGPGTLVTVSS
VL: DVVMTQTPASVEAAVGGTVTIKCQASQSISSYLAWYQQKPGQPPKLLIYSASTLASGVPSRFKGRGSGTEFTLTISDLECADAATYYCQSYDGSSGSSYGVGFGGGTEVVVKR
notes: rabbit/human chimeric antibody, made in HEK-293
B2: Ab11 (antibody, human IgG1, kappa, N297A, V domains shown)
VH: QSLEESGGRLVTPGTSLTLTCTASGFSLSAYDILWVRQAPGKGLESIGMMYDDGDTYYATWAKGRFIISRTSTTMDLKIISPTTEDTATYFCVKGVSNIWGQGTLVTVSS
VL: B1 VL with V2I, T7I, S30D, Y32S, R65S, S76G, G96S, S98Y, V101I
notes: as for B1
B3: Ab10 (antibody, human IgG1, kappa, N297A, V domains shown)
VH: B1 VH with K4E, N30S, Y31A, S60T, N98S, H99V, P102Q
VL: B1 VL with K22N, Q27E, S28N, S30Y, S31R, Y32S, R65S, G96S
notes: as for B1
B4: Ab12 (antibody, human IgG1, kappa, N297A, V domains shown)
VH: B1 VH with K4E, F26S, N30D, M49I, S60T, K78R, H99M
VL: B1 VL with A9S, E12S, S30G, Y32S, P43R, S50A, R65S, G96S
notes: as for B1
B5: Ab4 (antibody, human IgG1, kappa, N297A, V domains shown)
VH: B1 VH with K4E, C21Y, N30K, Y31H, M49I, S60N, H99I
VL: B1 VL with Q24R, S31V, P40A, S50Q, T53K, R65S, G96S
notes: as for B1
B6: Ab7 (antibody, human IgG1, kappa, N297A, V domains shown)
VH: QSVEESGGRLVTPGTPLTLTCTVSGFSLSSYAMSWVRQAPGEGLEWIGIISDSGSTYYASWAKGRFTISKTSTTVDLRITSPTTEDTATYFCAREPEYGYDDYGDWVSDLWGQGTLVTVSS
VL: DIVMTQTPASVEAAVGGTVTIKCQASQSISDYLSWYQQKPGQPPKLLIYRASTLASGVPSRFKGSGSGTQFTLTISDLECADAATYYCQSYYYSSSITYRNAFGGGTEVVVKR
notes: as for B1
B7: Ab9 (antibody, human IgG1, kappa, N297A, V domains shown)
VH: B6 VH with S29N, S55R, R78K, Q113P
VL: B6 VL with I2V, D31S
notes: as for B1
B8: Ab2.H (antibody, human IgG1, kappa, N297A, V domains shown)
VH: EVQLVESGGGLVQPGGSLRLSCAASGFTVSKYDMIWVRQAPGKGLESIGIIYDDGDTYYASSAKGRFTISRDNSKNTLYLQMNSLRAEDTAVYYCVKGVSNIWGQGTLVTVSS
VL: DIQMTQSPSTLSASVGDRVTITCQASQSISNYLAWYQQKPGKAPKLLIYSASTLASGVPSRFSGSGSGTEFTLTISSLQPDDFATYYCQSYEGSSSSSYGVGFGGGTKVEIKR
notes: humanized form of Ab2
B9: Ab11A.H (antibody, human IgG1, kappa, N297A, V domains shown)
VH: B8 VH with K31A, M34I, I35L, I50M, I51M, S61T
VL: B8 VL with S30G, N31S, Y32S, S98Y, V101I
B10: Ab4.H (antibody, human IgG1, kappa, N297A, V domains shown)
VH: B8 VH with Y32H, S61N
VL: B8 VL with Q24R, N31V, S50Q, T53K, E92D
notes: humanized form of Ab4
B11: Ab1.H (antibody, human IgG1, kappa, N297A, V domains shown)
VH: B8 VH with K31N, I50M, I102H
VL: B8 VL with N31S, E92D, S96G
notes: humanized form of Ab1
B12: Ab11.H (antibody, human IgG1, kappa, N297A, V domains shown)
VH: B8 VH with K31A, M34I, I35L, I50M, I51M, S61T
VL: B8 VL with S30D, N31S, Y32S, E92D, S98Y, V101I
notes: humanized form of Ab11
B13: Ab12.H (antibody, human IgG1, kappa, N297A, V domains shown)
VH: not shown
VL: B8 VL with S30G, N31S, Y32S, S50A, E92D
notes: humanized form of Ab12
B14: Ab10.H (antibody, human IgG1, kappa, N297A, V domains shown)
VH: B8 VH with K31S, Y32A, I50M, S61T, N101S, I102V
VL: B8 VL with Q27E, S28N, S30Y, N31R, Y32S, E92D
notes: humanized form of Ab10

Residue numbers refer to the chain shown, from its start. Ends that are not written are not given here. Some results are limits rather than exact numbers.

For the first experiment, the target named is T1, human ACTH 1-39. As to the kind of experiment: cell-based or functional assay.
For B1, the “MC1R IC50” value is 2.38 nM.
Same read-out and setting: the result for B2 reads 1.49 nM.
Same read-out and setting: the value for B3 was 2.14 nM; that for B4 was 1.66 nM.
On to B5, for which the “MC1R IC50” value worked out at 5.73 nM.
Turning to B6, the “MC1R IC50” value amounted to 1.29 nM.

The target of the next experiment is T1, human ACTH 1-39. As to the kind of experiment: cell-based or functional assay. This is another data set of the same source.
As for B1, the “MC3R IC50” value worked out at 101 nM, the “MC4R IC50” value is 56.4 nM and the “MC5R IC50” value is 1100 nM.
Take B2: the “MC3R IC50” value was 108 nM, the “MC4R IC50” value was determined as 49.4 nM and the “MC5R IC50” value stood at 4200 nM.
In the case of B3, the “MC3R IC50” value was 133 nM, the “MC4R IC50” value is 66.3 nM and the “MC5R IC50” value amounted to 5400 nM.
The like results for B5 were, in that order, 113 nM, 65.8 nM and 1300 nM.
Consider B6, for which the “MC3R IC50” value amounted to 64.2 nM, the “MC4R IC50” value was determined as 49.7 nM and the “MC5R IC50” value was determined as 1100 nM.

A further experiment addresses T1, human ACTH 1-39. As to the kind of experiment: cell-based or functional assay. This is another data set of the same source.
Consider B1, for which the “MC2R IC50” value amounted to 0.14 nM.
As for B2, the “MC2R IC50” value turned out to be 0.03 nM.
For the molecule B3, the “MC2R IC50” value was determined as 0.16 nM.
The same measure, in the same setting: the value for B4 was 0.05 nM; that for B5 was 0.46 nM; that for B6 was 0.09 nM.
Take B7: the “MC2R IC50” value worked out at 0.12 nM.

A further experiment has as its target T1, human ACTH 1-39. Briefly: cell-based or functional assay. This is another data set of the same source.
B1: the “Y1 Cells IC50” value worked out at 2.36 nM.
On the same count and under the same terms, the result for B2 reads 1.53 nM; that for B3, 5.98 nM.
For the molecule B4, the “Y1 Cells IC50” value was 2.68 nM.
Consider B5, for which the “Y1 Cells IC50” value came to 17.2 nM.
On to B6, for which the “Y1 Cells IC50” value was 2.49 nM.
Consider B7, for which the “Y1 Cells IC50” value amounted to 3.47 nM.

A further experiment deals with T2, human ACTH 18-39. Briefly: SPR ProteOn, antibody immobilised; SPR, antibody on the chip, CLIP alone (Table 5). The procedure:
(§1) Antibody was immobilized to the surface of general amine coupling (GLC or GLM) Chips (Bio-Rad). […] At the chosen concentrations of antigen (ranging from 454 ng/ml to 5.6 ng/ml) association times of 200 seconds and dissociation times of 30-200 minutes were used with the ProteOnTM Manager Software (v3.1.0.6, Bio-Rad) to group and fit data using a 1:1 Langmuir binding model. Surfaces were regenerated between analyte queries using 10 mM glycine at pH 2.0. Data repeated across a single density was averaged and a single KD and standard propagation of error calculated for each antibody.
As to B2, the Kd was 54 nM, the koff came to 0.086 s⁻¹ and the kon stood at 1.6e+06 M⁻¹ s⁻¹.
B3 displayed a Kd of 250 nM, a koff of 0.27 s⁻¹ and a kon of 1.1e+06 M⁻¹ s⁻¹.
The like results for B4 were, in that order, 27 nM, 0.024 s⁻¹ and 890000 M⁻¹ s⁻¹.

The next experiment deals with T3, N-term biotinylated human ACTH 1-39. As to the kind of experiment: ELISA, biotin-ACTH 1-39 on neutravidin plate. As for the experimental part: All incubations were done at room temperature. […] The plates were then blocked using a blocking solution (PBS, 0.5% fish skin gelatin, 0.05% Tween-20) for approximately one hour. The blocking solution was then removed and the plates were then incubated with a dilution series of the antibody being tested for approximately one hour. At the end of this incubation, the plate was washed three times with wash buffer and further incubated with a secondary antibody containing solution (Peroxidase conjugated AffmiPure™ F(ab′)₂ fragment goat anti-human IgG, Fc fragment specific (Jackson Immunoresearch) for approximately 45 minutes and washed three times. Next a substrate solution (TMB peroxidase substrate, BioFx®, SurModics, Eden Prairie, Minn.) was added and incubated for 3 to 5 minutes in the dark. The reaction was stopped by addition of 0.5 M HCl and the plate was read at 450 nm in a plate-reader.
Turning to B1, the EC50 came to 0.48 nM.
As to B3, the EC50 is 1.57 nM.
For the molecule B4, the EC50 worked out at 0.76 nM.
Same read-out and setting: the result for B5 reads 0.39 nM.
Still for that read-out and setting: the result for B6 reads 2.24 nM; that for B7, 2.05 nM.

The next experiment deals with T2, human ACTH 18-39. As to the kind of experiment: SPR ProteOn, antibody immobilised. The procedure: as §1
With B1, the Kd was determined as 150 nM, the koff was 0.092 s⁻¹ and the kon is 620000 M⁻¹ s⁻¹.
The like results for B5 were, in that order, 270 nM, 0.19 s⁻¹ and 710000 M⁻¹ s⁻¹.
Turning to B8, binding was put at a Kd of 28 nM.
Same read-out and setting: the value for B9 was 20 nM; that for B10 was 92 nM; that for B11 was 20 nM.
For B12, binding was put at a Kd of 20 nM.
Same read-out and setting: the value for B13 was 8.8 nM; that for B14 was 13 nM.
As to B6, the dissociation rate constant (koff) is over 0.1 s⁻¹.
With B7, the off-rate constant (koff) was over 0.1 s⁻¹.

Another experiment addresses T1, human ACTH 1-39. Briefly: SPR ProteOn, antibody immobilised. The procedure:
as §1
For the molecule B1, the Kd came out at 0.19 nM and the koff is 0.00019 s⁻¹.
For the molecule B2, the Kd stood at 0.04 nM, the off-rate constant (koff) stood at 4e-05 s⁻¹ and the on-rate (kon) was 1e+06 M⁻¹ s⁻¹.
On the same counts, the results for B3 are 0.11 nM, 0.00011 s⁻¹ and 1e+06 M⁻¹ s⁻¹.
On to B5, for which binding was put at a Kd of 0.27 nM, the koff was determined as 0.00027 s⁻¹ and the association rate constant (kon) turned out to be 1e+06 M⁻¹ s⁻¹.
The like results for B6 were, in that order, 0.037 nM, 3.7e-05 s⁻¹ and 1e+06 M⁻¹ s⁻¹.

In a further experiment the target is T4, human ACTH 1-13. Briefly: SPR ProteOn, antibody immobilised. The procedure: as §1
Molecule B1 came in with a koff of over 0.1 s⁻¹.
In turn, B2 gave a koff of over 0.1 s⁻¹.
The same measure, in the same setting: the result for B3 reads over 0.1 s⁻¹; that for B4, over 0.1 s⁻¹; that for B5, over 0.1 s⁻¹.

A further experiment has as its target T4, human ACTH 1-13. As to the kind of experiment: SPR ProteOn, antibody immobilised; SPR, antibody on the chip, alpha-MSH alone (Table 6). The procedure: as §1
In turn, B6 had a dissociation constant (Kd) of 54 nM, a koff of 0.013 s⁻¹ and a kon of about 240000 M⁻¹ s⁻¹.
On the same counts, the results for B7 are 63 nM, 0.009 s⁻¹ and about 140000 M⁻¹ s⁻¹.
